In data set [1] the target is T1, 26mer peptide of γ-gliadin.
T1 chain: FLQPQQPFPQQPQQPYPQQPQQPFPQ

Data set [2] has as its target T2, 33mer peptide of α-gliadin.
T2 chain: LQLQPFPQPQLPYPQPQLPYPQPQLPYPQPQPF

Data set [3] addresses DQ2.5-glia-α1a.
Data set [4] addresses peptides containing PQL.
In data set [5] the target is peptides containing PQQ.
The target of data set [6] is DQ2.5-glia-ω1.
Data set [7] has as its target T3, B08-E2E7.
T3 chain: PQQPIPQQPQPYPQQ

In data set [8] the target is T4, W02-E07.
T4 chain: LQPFPQPQLPYPQPQ

For data set [9], the target named is T5, R11-E4E7.
T5 chain: QPFPQQPEQIIPQQP

The target of data set [10] is T6, W03-E07.
T6 chain: QPFPQPQQPFPWQP

B1: Kuma040 (protein)
chain: AAPTAYTPLDVAQAYQFPEGLDGQGQCIAIIELGGGYDEASLAQYFASLGVPAPQVVSVSVDGASNQPTGDPKGPDGEVTLDIEVAGALAPGAKFAVYFAPDTTAGFLDAITTAIHDPTLKPSVVSISWAGPEDSWTSAAIAAMNRAFLDAAALGVTVLAAAGDSGSTGGEQDGLYHVFFPAASPYVLACGGTRLVASGGRIAQETVWNQGPDGGATGGGVSRIFPLPAWQEHANVPPSANPGASSGRGVPDLAGNADPQTGYEVVIDGEATVTGGTSAVAPLFAALVARINQKLGKAVGYLNPTLYQLPADVFHDITEGNNDIANRAQIYQAGPGWDPCTGLGSPIGVRLLQALLPSASQPQPGSTENLYFQSGALEHHHHHH
By Km is commonly meant the substrate concentration at which the rate is half of its maximum. By Vmax is commonly meant the rate approached at saturating substrate. One may read the kcat/Km as the turnover number divided by the Michaelis constant. In the case of B1, the “appearance of peptide breakdown products over time” value (“appearance … over time” for short) in data set [1] and in data set [2] was “Kuma040 demonstrated activity almost as potent as Kuma030 especially against the 26mer peptide” in each case. For the same protein, the results for the Kcat in data set [3] and in data set [6] were 16.3 s⁻¹ and 24.6 s⁻¹, respectively. In addition, the Km in data set [3] stood at 0.86 mM; in data set [6], 15.3 mM. Besides, the Vmax in data set [3] stood at 1.49e-06 M/s; in [6], 2.46e-06 M/s. Further, the kcat/Km in [3] is 19100 M⁻¹ s⁻¹; in data set [6], 1600 M⁻¹ s⁻¹. Moreover, the “Activity Improvement over Background (Kuma010)” value in data set [4] was 35-50x (PQL); in data set [5], 30-40x (PQQ);.

B2: Kuma030 (protein)
chain: AAPTAYTPLDVAQAYQFPEGLDGQGQCIAIIELGGGYDEASLAQYFASLGVPAPQVVSVSVDGASNQPTGDPEGPDGEVTLDIEVAGALAPGAKFAVYFAPDTTAGFLDAITTAIHDPTLKPSVVSISWSGPEDSWTSAAIAAMNRAFLDAAALGVTVLAAAGDQGSTSGEQDGLYHVHFPAASPYVLACGGTRLVASGGRIAQETVWNQGPDGGATGGGVSRIFPLPAWQEHANVPPSANPGASSGRGVPDLAGNADPQTGYEVVIDGEATVTGGTSAVAPLFAALVARINQKLGKAVGYLNPTLYQLPADVFHDITEGNNDIANRAQIYQAGPGWDPCTGLGSPIGVRLLQALLPSASQPQPGSTENLYFQSGALEHHHHHH
Turning to B2, the “cleavage products by mass spectroscopy” value in data set [7], in data set [2], in data set [8], in data set [9] and in [10] was “Kuma030 cleaved each peptide after the PQ dipeptide motif” in each case. Moreover, the “appearance … over time” value in data set [1] is reported as “In both cases, Kuma030 was the dominant enzyme tested”; in data set [2], “In both cases, Kuma030 was the dominant enzyme tested”. The Kcat stood at 17.4 s⁻¹ in data set [3] and 27.3 s⁻¹ in [6]. Moreover, the values for the Michaelis constant (Km) in data set [3] and in [6] were 1.9 mM and 8.4 mM, respectively. Besides, the maximal velocity (Vmax) was determined as 1.74e-06 M/s in data set [3] and 2.73e-06 M/s in data set [6]. In addition, the catalytic efficiency (kcat/Km) was determined as 9030 M⁻¹ s⁻¹ in data set [3] and 3270 M⁻¹ s⁻¹ in data set [6]. In addition, the results for the “Activity Improvement over Background (Kuma021)” value in data set [4] and in data set [5] were 1.2-2x (PQL) and 1.2-2x (PQQ), respectively. For the same protein, the “activity relative to Kuma010” value in data set [4] was 11-fold more active against peptides containing PQL; in [5] it was 44-fold more active against peptides containing PQQ. Further, the “activity relative to Kuma040” value is “Kuma030 is 2-fold more active on PQQ, and 2-fold less active on PQL, than Kuma040” in data set [4]; “Kuma030 is 2-fold more active on PQQ, and 2-fold less active on PQL, than Kuma040” in [5].

B3: Kuma050 (protein)
chain: AAPTAYTPLDVAQAYQFPEGLDGQGQCIAIIELGGGYDEASLAQYFASLGVPAPQVVSVSVDGASNQPTGDPEGPDGEVTVDIEVAGALAPGAKFAVYFAPDTTAGFLDAITTAIHDPTLKPSVVSISWSGPEDSWTSAAIAAMNRAFLDAAALGVTVLAAAGDQGSTSGEQDGLYHVHFPAASPYVLACGGTRLVASGGRIAQETVWNQGPDGGATGGGVSRIFPLPAWQEHANVPPSANPGASSGRGVPDLAGNADPQTGYEVVIDGEATVIGGTSAVAPLFAALVARINQKLGKAVGYLNPTLYQLPADVFHDITEGNNDIANRAQIYQAGPGWDPCTGLGSPIGVRLLQALLPSASQPQPGSTENLYFQSGALEHHHHHH
Consider B3, for which, in data set [1], the “appearance … over time” value is recorded as “very poor activity on the 26mer peptide”. The “appearance … over time” value in data set [2] is listed as “Kuma050 demonstrated good activity on the 33mer peptide”. In data set [3], the Kcat stood at 14.2 s⁻¹, the Km stood at 2.5 mM, the Vmax came out at 1.42e-06 M/s and the kcat/Km came out at 5610 M⁻¹ s⁻¹. The “Activity Improvement over Background (Kuma021)” value in [4] is given as 1.5-2x (PQL). For the same protein, the “Activity Improvement over Background (Kuma021)” value in data set [5] is given as 0.01-0.2x (PQQ). Further, in data set [6], the Kcat turned out to be 27.8 s⁻¹, the Michaelis-Menten constant (Km) came to 5 mM, the Vmax amounted to 2.78e-06 M/s and the kcat/Km came out at 56 M⁻¹ s⁻¹.

The record behind these values is patent US20180142226.
